Biological target: T1, S. pombe Uba1 (S. pombe) (UniProt O94609)
T1 sequence: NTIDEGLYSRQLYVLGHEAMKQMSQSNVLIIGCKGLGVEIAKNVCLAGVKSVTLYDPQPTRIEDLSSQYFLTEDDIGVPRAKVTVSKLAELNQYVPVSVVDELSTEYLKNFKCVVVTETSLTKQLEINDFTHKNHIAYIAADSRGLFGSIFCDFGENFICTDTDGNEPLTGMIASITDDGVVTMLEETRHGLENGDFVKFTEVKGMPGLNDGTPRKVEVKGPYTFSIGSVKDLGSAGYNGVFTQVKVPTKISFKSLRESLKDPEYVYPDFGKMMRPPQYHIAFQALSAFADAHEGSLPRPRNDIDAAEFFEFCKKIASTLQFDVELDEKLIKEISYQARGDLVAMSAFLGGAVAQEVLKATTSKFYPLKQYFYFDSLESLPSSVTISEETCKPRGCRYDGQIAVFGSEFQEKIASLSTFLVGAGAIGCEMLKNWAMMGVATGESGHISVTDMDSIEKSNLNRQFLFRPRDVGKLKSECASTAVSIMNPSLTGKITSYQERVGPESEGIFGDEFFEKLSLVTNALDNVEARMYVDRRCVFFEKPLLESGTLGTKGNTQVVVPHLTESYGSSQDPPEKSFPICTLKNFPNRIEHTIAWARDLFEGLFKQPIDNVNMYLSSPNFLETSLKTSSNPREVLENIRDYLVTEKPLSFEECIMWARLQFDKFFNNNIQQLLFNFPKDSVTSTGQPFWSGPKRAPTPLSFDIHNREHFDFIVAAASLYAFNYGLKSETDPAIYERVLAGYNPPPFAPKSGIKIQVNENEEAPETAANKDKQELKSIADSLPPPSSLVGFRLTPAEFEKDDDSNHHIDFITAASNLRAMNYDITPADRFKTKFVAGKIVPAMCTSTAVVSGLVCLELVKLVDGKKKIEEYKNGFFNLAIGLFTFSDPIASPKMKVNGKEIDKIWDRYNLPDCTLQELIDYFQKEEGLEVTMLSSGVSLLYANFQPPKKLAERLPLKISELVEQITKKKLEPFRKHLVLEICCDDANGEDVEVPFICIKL

- fold decrease in E1-E2 Ub thioester transfer assay (Figure 2E): 2 fold
B1: Ubc15 L67F (enzyme)
chain: MPSSASEQLLRKQLKEIQKNPPQGFSVGLVDDKSIFEWEVMIIGPEDTLYEGGFFHATLSFPQDYPFMPPKMKFTTEIWHPNVHPNGEVCISILHPPGDDKYGYEDAGERWLPVHSPETILISVISMLSSPNDESPANIDAAKEFRENPQEFKKRVRRLVRRSIEMI

From paper PMC5319395
